The data set is described as follows: amyloid nucleation score (Sup35N fusion, yeast selection) (log enrichment); library NNK3; higher = more nucleation; inactive = no reads after selection. The method, boiled down:
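The nucleation score is the log enrichment of output over input reads, calculated with DiMSum and centred on the mode score of non-aggregating sequences. Sequences with under 100 input reads were excluded. Reads came from Illumina sequencing of plasmid inserts from psi-negative yeast expressing Sup35N fused to peptides of 20 random codons, induced 24 hours with 100 μM copper sulfate and grown 7 days at 30°C without adenine and uracil.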

The source of these data is the supplement of paper PMC12042874.

± gives the uncertainty stated by the source.

For TKWRLTP, the amyloid nucleation score result was “inactive”.

For WYKNYASTRIPMIEWKRILT, the amyloid nucleation score entry is “inactive”.

For the substance SLRDRKDRWGCQMLRRWVDF, the amyloid nucleation score result was “inactive”.

For QLWNWVFYYISNILGKGMHL, the amyloid nucleation score entry was “inactive”.

With SQSWMSNLLMGSRDDL, the amyloid nucleation score worked out at 1.58 ± 0.13.

Regarding DHVAG, the amyloid nucleation score entry is “inactive”.

For the substance SSVVT, the amyloid nucleation score result was “inactive”.

For FSCPDLGRGYVIS, the amyloid nucleation score result was “inactive”.

With RLFLTVHPTDSILENEAV, the amyloid nucleation score entry is “inactive”.

As for CEYAYFGMDYLLEAGSKSDY, the amyloid nucleation score result is “inactive”.

SGIQVRGQTSIVLLNF: the amyloid nucleation score was determined as 2.41 ± 0.052.

Consider LMLANVNAA, for which the amyloid nucleation score entry was “inactive”.

Regarding SSGLMLWFDWLLVWRGCRLR, the amyloid nucleation score entry is “inactive”.

VIITNEMVDRVDGDTTSYMH yielded an amyloid nucleation score of -0.003 ± 1.

For the substance HIWGIRKCDPPLTVVMFQSL, the amyloid nucleation score entry is “inactive”.

Regarding YLRWLLFYS, the amyloid nucleation score entry is “inactive”.

With IPSNTKSFSH, the amyloid nucleation score result was “inactive”.

Turning to MMVMWD, the amyloid nucleation score entry was “inactive”.

Consider SMDMRWAFICLILTITSMGR, for which the amyloid nucleation score entry was “inactive”.

With VLRGHSMHRSMGLWLA, the amyloid nucleation score result was “inactive”.

As to LVVSVRTYPTGCCPYKMLNQ, the amyloid nucleation score entry is “inactive”.

As to SYYPRIRRLGWECSWTPMLQ, the amyloid nucleation score result is “inactive”.

With MNFSEH, the amyloid nucleation score entry was “inactive”.

GCTCQ: the amyloid nucleation score is 1.21 ± 0.15.

With KKYLTNVDLNVSN, the amyloid nucleation score result was “inactive”.

For SLDKLAFRD, the amyloid nucleation score entry is “inactive”.

Regarding FIRTGELLFLVEWPLVCYTK, the amyloid nucleation score entry is “inactive”.

With REEAVWQADFVYLTKSAILN, the amyloid nucleation score entry was “inactive”.

On to CLVWG, for which the amyloid nucleation score entry is “inactive”.

RYHYLSSLSMNVNTGELWMD: the amyloid nucleation score result was “inactive”.

GYSTRYLSV: the amyloid nucleation score result is “inactive”.

TLAPKYFYFFVKDVFGTSYC yielded an amyloid nucleation score of 1.54 ± 0.093.

In the case of DRGRMCMNAFPFLCWIWFHG, the amyloid nucleation score result is “inactive”.

In the case of QSEALNNFWVGSILSYMVLG, the amyloid nucleation score result was “inactive”.

For AVVFCVSEYYQQKRYLNSSQ, the amyloid nucleation score result was “inactive”.

For NCRVMITVIYTICNVVFLSC, the amyloid nucleation score result was “inactive”.

As to SVFPSLFNACSDLNSVHKVV, the amyloid nucleation score entry is “inactive”.

Consider MDDFLYAVPMWELWKVLRDE, for which the amyloid nucleation score entry was “inactive”.

For the substance LDSAYRTVDGSICTTSYREH, the amyloid nucleation score entry was “inactive”.

With ISHVNRSNLVFLYFIVVL, the amyloid nucleation score stood at 0.669 ± 0.15.

Regarding ARVLDAWSYRVARKNLWESL, the amyloid nucleation score entry is “inactive”.

In the case of ALGIYRTIYCVIVFG, the amyloid nucleation score result was “inactive”.

Regarding TYTVYLRRYAYYECTFRQFL, the amyloid nucleation score result is “inactive”.

In the case of GKLSNH, the amyloid nucleation score entry was “inactive”.

Substance WCRCSFVVLHSVVVCSFGTR showed an amyloid nucleation score of -0.074 ± 0.69.

As for DVNFWSLYKFCTRVDFGLSY, the amyloid nucleation score result was “inactive”.

As to NSYQY, the amyloid nucleation score result is “inactive”.

Regarding ERALPQGMDRWSWFRERSCH, the amyloid nucleation score result is “inactive”.

As to TKLPNYFWGLKGYHLLALLR, the amyloid nucleation score result was “inactive”.

Take TLNGCR: the amyloid nucleation score result is “inactive”.

Consider VLKKGYNKRYVGECIANCTV, for which the amyloid nucleation score result was “inactive”.

LTCSWIICLSMSYLTSRYNR had an amyloid nucleation score of 1.83 ± 0.1.

LWRIILWPFVTWSDMMFFQF yielded an amyloid nucleation score of -0.076 ± 0.98.

LLTFALIL gave an amyloid nucleation score of 0.462 ± 0.19.

As to KSSSAYNRSDHGLMLDRRTQ, the amyloid nucleation score result was “inactive”.

Turning to LRLCGAMPDRCLW, the amyloid nucleation score entry is “inactive”.

Take NYDRYCANIMYTAMCIRLLW: the amyloid nucleation score result is “inactive”.

In turn, HSFREYKRVNLYYPFYKDCL registered an amyloid nucleation score of 0.467 ± 0.13.

With TKYRPCYNIVYSMFED, the amyloid nucleation score result was “inactive”.

On to ERRKIGLKLLRLRQNNGIMA, for which the amyloid nucleation score entry is “inactive”.

With CLCSMHLRWRSSNWRGYEHF, the amyloid nucleation score was 0.474 ± 0.31.

With FLLMC, the amyloid nucleation score result was “inactive”.

For the substance KYFRNLTVRKTKWE, the amyloid nucleation score entry was “inactive”.

Take SVERVLLRTVASVGGDVDVN: the amyloid nucleation score result is “inactive”.

Consider IKSKNAVCCHFATTMQDSLT, for which the amyloid nucleation score entry was “inactive”.

Substance IIFFYGGS returned an amyloid nucleation score of 1.9 ± 0.08.

For YGLVLGFRRTGYTCDDSLNW, the amyloid nucleation score entry was “inactive”.

Regarding IKFDGIIADFSSITVVLECT, the amyloid nucleation score was found to be 0.708 ± 0.25.

Take MHAMNVMAGVRLALVYVRSN: the amyloid nucleation score entry was “inactive”.

Consider ILTISNTAKKSDW, for which the amyloid nucleation score entry was “inactive”.

As for RNRWPLPRYICRFKGFSHVV, the amyloid nucleation score result is “inactive”.

For the substance GVVKRQRLWTVGMNPKIEAW, the amyloid nucleation score entry is “inactive”.

In turn, WYVCRSGVCGHALIALATRR displayed an amyloid nucleation score of -0.483 ± 0.61.

Turning to LEYKYVGLSKFDALIRQWFL, the amyloid nucleation score result is “inactive”.

Consider LEDSLPQIPTQIVGWWFLKM, for which the amyloid nucleation score result is “inactive”.

In the case of TGCPWIRTVNPVVPWVCEHR, the amyloid nucleation score entry was “inactive”.

With TFLCSENQAAMWGIRTGSLL, the amyloid nucleation score entry was “inactive”.

Take NSYFLSRTLLSTSGRRTCRM: the amyloid nucleation score result was “inactive”.

CVGVF: the amyloid nucleation score entry was “inactive”.

On to MIHAFGFLMMCLVQSYLELF, for which the amyloid nucleation score result is “inactive”.

Turning to QYDIVLCGQWYGLSKGLRYS, the amyloid nucleation score result is “inactive”.

Take GSEQSVEDGFAWMKDTYFCL: the amyloid nucleation score result is “inactive”.

As for PNRWLSRLALRIFLGHCEPV, the amyloid nucleation score entry is “inactive”.

FSWSLSLLHIPYKQWRGRWV: the amyloid nucleation score entry is “inactive”.

Take TVNWLL: the amyloid nucleation score entry is “inactive”.

With LSSWEIVSSLSHWNVYVIAR, the amyloid nucleation score result is “inactive”.

In the case of CSLRPNSERTSVIYNALHVN, the amyloid nucleation score entry was “inactive”.

Turning to SELHRNRPTKLGFCRYESQV, the amyloid nucleation score entry was “inactive”.

With RRMPLWEVGFSQASLTRQ, the amyloid nucleation score result is “inactive”.

For the substance GRMWSACLGYMWGCFWREFW, the amyloid nucleation score entry is “inactive”.

With LFVLIDYNRYP, the amyloid nucleation score entry is “inactive”.

On to NTMMA, for which the amyloid nucleation score result is “inactive”.

On to SRWSGFCIYRGN, for which the amyloid nucleation score result is “inactive”.

ADNRHIFFIGFQRVLSFSWA: the amyloid nucleation score was 1.25 ± 0.1.

With SQYIWFFSVVLSFFSSVSWC, the amyloid nucleation score is -0.021 ± 0.85.

For NFFMGLLSSRSMGLTWYWCM, the amyloid nucleation score entry was “inactive”.

Regarding GRPIKWKKRSAVK, the amyloid nucleation score result is “inactive”.
